T1: CCR9 (Homo sapiens, UniProt P51686)
T1 sequence (P51686 1-369): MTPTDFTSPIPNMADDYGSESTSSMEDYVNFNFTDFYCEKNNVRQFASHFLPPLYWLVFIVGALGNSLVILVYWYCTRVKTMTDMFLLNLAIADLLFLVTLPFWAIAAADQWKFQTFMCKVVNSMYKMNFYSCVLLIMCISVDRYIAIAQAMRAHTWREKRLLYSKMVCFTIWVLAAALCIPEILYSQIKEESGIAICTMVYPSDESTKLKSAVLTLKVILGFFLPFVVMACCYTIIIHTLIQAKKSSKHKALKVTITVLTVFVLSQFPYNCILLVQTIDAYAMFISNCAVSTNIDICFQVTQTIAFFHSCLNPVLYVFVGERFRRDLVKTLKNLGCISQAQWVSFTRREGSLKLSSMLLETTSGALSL

T2: CCR9 (C-C chemokine receptor type 9) (human, UniProt P51686 1-369, limits assumed)
T2 construct: also called human chemokine receptor CCR9
T2 sequence (looked up): T1 sequence (P51686 1-369)

B1: SRB1 anti-CCR9 antibody (antibody, V domains shown)
VH: EVQLVESGGGLVKPGGSLRLSCAASGFTFSKFWMNWVRQAPGKGLEWVGEIRLKSNNYATHYAESVKGRFTISRDDSKNTLYLQMNSLKTEDTAVYYCTSDGWFAYWGQGTLVTVSS
VL: DVQMTQSPSSLSASVGDRVTITCRSSQSLVHSNGNTYLNWYQQKPGKAPKLLIYKVSNRFSGVPSRFSGSGSGTDFTLTISSLQPEDFATYYCSQSTHFPRTFGGGTKVEIK
notes: also called CCR9-targeted antibody (SRB1)

Columns and labels:
[1] = system: MOLT4-GFP xenografts; assay: Survival of NSG mice with MOLT4-GFP xenografts, SRB1 combined with chemotherapy agents; format: in vivo; conditions: for Median survival: NSG mice, MOLT4-GFP i.v., SRB1 or isotype 4 mg/kg i.p. x4 weekly, vincristine 0.6 mg/kg i.v. day 5, dexamethasone 50 μg/mouse/dose days 5-9; for # censored subjects / # deaths: same survival study, 10 animals/group
[2] = target: T1, CCR9; assay: CCR9 binding in the presence of CCL25, measured by flow cytometry
Source text: Therefore, like “91R” and “92R”, the “SRB1” is preferred for use in the treatment of a condition in which CCL25 concentration may be elevated, including in the treatment of certain cancers as described in detail herein.

[3] = system: CCR9+ lymphocyte; assay: Antibody mediated complement-dependent cytotoxicity (CDC); format: cell-based
Source text: The present inventors have, for example, observed antibody mediated complement-dependent cytotoxicity (CDC) utilizing anti-CCR9 antibodies such as “91R”, “92R” and “SRB1” described above.

[4] = target: T2, CCR9 (C-C chemokine receptor type 9); assay: CCR9 binding in the presence of CCL25; no protocol given

Molecule	Median survival [1]	# censored subjects [1]	# deaths [1]	survival, given as IC50 ([1]; SRB1 at 4 mg/kg vs Control (48 days))	CCR9 binding in the presence of the ligand CCL25 [2]	complement-dependent cytotoxicity (CDC) [3]	binding result [4]
C[C@@H]1C[C@H]2[C@@H]3CCC4=CC(=O)C=C[C@]4(C)[C@@]3(F)[C@@H](O)C[C@]2(C)[C@@]1(O)C(=O)CO [DX, dexamethasone]	47.7 days	10	10	–	–	–	–
CC[C@]1(O)C[C@H]2CN(CCc3c([nH]c4ccccc34)[C@@](C(=O)OC)(c3cc4c(cc3OC)N(C=O)[C@H]3[C@@](O)(C(=O)OC)[C@H](OC(C)=O)[C@]5(CC)C=CCN6CC[C@]43[C@@H]65)C2)C1 [VX, vincristine]	67.9 days	10	10	–	–	–	–
B1	66.2 days	10	10	70 days	exhibit CCR9 binding in the presence of CCL25	observed	binds
